Measured values as given in patent US20230071609A1 (Genentech, published 2023).

Experiments:
[1] = target: T1, untagged APOL1-G0, KIK variant, transiently expressed (COS cells) (human, UniProt O14791 29-398); experiment: immunofluorescence on transfected COS cells, 1 µg/ml; grade
T1 construct: Origene SC109941 clone with E150K, M228I, R255K
T1 chain: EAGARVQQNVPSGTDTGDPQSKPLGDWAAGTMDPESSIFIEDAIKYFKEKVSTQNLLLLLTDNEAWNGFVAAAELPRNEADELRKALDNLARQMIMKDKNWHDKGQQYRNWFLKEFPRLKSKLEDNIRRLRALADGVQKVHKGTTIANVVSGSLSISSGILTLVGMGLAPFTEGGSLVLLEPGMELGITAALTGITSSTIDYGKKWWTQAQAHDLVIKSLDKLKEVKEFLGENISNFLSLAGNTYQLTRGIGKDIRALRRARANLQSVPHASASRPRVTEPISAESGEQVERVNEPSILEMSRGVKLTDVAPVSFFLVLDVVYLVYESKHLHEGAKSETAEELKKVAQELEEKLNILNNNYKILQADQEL

[2] = target: T2, circulating APOL1 in normal human serum (human, UniProt O14791 28-398); experiment: summary of the Examples: trypanolysis blocking as proxy for serum APOL1
T2 construct: mature; Serum of healthy volunteers; lipoprotein-associated; also called serum APOL1; HDL APOL1
T2 sequence (looked up): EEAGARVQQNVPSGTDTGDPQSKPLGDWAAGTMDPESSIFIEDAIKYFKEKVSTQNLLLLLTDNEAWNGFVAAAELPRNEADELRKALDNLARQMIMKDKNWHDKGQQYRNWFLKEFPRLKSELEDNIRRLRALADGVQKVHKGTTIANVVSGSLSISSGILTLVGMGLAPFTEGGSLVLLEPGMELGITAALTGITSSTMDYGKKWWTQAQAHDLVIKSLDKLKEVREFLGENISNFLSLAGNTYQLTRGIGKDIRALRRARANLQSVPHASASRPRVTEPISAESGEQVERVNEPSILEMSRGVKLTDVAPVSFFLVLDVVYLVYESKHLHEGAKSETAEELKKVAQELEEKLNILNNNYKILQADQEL
Procedure: The trypanolysis assay used herein to text specificity of antibodies for serum APOL1 is as follows. Trypanosoma brucei brucei were obtained from ATCC and cultured in HMI-9 media containing IMDM (Genentech), heat-inactivated (56° C. for 30 min) FBS (Seradigm IXL9/06807/GEN), 1% serum plus (Sigma 14008C), HMI-9 (Genentech) and 1% hypoxanthine (Genentech). Trypanosome lysis was performed by treating 1×10⁵ Trypanosomes with serial dilutions of NHS or recombinant APOL1 for 16 h in a total of 100 μl. Live cell read out was done by the Alamar Blue assay as per the manufacturer's protocol, (Thermo Fisher, DAL1100). Briefly 10 μl of Alamar Blue was added to each well, incubated at 37° C. for 4 h. Red fluorescence, indicating live trypanosomes, was measured on a SpectraMax® fluorimeter powered by SoftMAX® PRO with excitation at 530 nm and emission 590 nm. For the antibody blocking assay, 1% normal human serum was preincubated with 1-10 μg/ml of anti-APOL1 antibody or media at room temperature for 20 minutes followed by addition of trypanosomes. After 16 h, the Alamar Blue assay was performed as above and background values for media only were subtracted and % blocking calculated by normalizing to no antibody control.
Trypanosoma brucei brucei were obtained under MTA from ATCC and cultured in HMI-9 media containing IMDM (Genentech), heat-inactivated (56° C. for 30 min) FBS (Seradigm IXL9/06807/GEN), 1% serum plus (Sigma 14008C), HMI-9 (Genentech) and 1% hypoxanthine (Genentech). Trypanosome lysis was performed by treating 1×10⁵ Trypanosomes with serial dilutions of NHS or recombinant APOL1 for 16 h in a total of 100 μl. Live cell read out was done by the Alamar Blue assay as per the manufacturer's protocol (30) (Thermo Fisher, DAL1100). Briefly 10 μl of Alamar Blue was added to each well, incubated at 37° C. for 4 h. Red fluorescence, indicating live trypanosomes, was measured on a SpectraMax fluorimeter powered by SoftMAX PRO with excitation at 530 nm and emission 590 nm. For the antibody blocking assay, 1% normal human serum was preincubated with 1-10 μg/ml of anti-APOL1 antibody or media at room temperature for 20 mins followed by addition of trypanosomes.

Row | Binder | binding result [1] | binding result [2]
1 | antibody 3.6D12 (antibody, V domains shown, Mouse mAb (Method #3), cloned as murine IgG2a LALAPG; Early screens used hybridoma-purified antibody; also called mAb 3.6D12) VH: EVMLVESGGGLVRPGGSLKLSCTASGFTFSRCAMSWVRQTPEKRLEWVSAISRDSTYTYYSDSVKGRFTVSRDNAKNTLYLQMSSLRSEDTAMYYCARQIDDYYVDALDYWGQGTSVTVSS VL: DVQITQSPSYLAASPGETITINCRASKIISKYLAWYQEKPGKTIKLLIYSGFTLQSGIPSRFSGSGSGTDFTLTISSLEPEDFAMYYCQQHNEYPLTFGAGTKLEIKR | binds | binds
2 | antibody 4.17A5 (antibody, V domains shown, Mouse mAb (Method #4), cloned as murine IgG2a LALAPG; also called mAb 4.17A5) VH: QVQLQQSGPELLKPGASVKISCKGSGYAFSNSWINWVKLRPGQGLEWIGRIYPGDGDTKYNGKFKGKATLTADKSSSTAHMQLRSLTSVDSAVYFCARFPFGKYEGPGAMDYWGQGTSVTVSS VL: DIQMTQTTSSLSASLGDRVTISCRASQDISSYLNWYQQKPDGTIKLLIYYTSRLHSGVPSRFSGSGSGTDFSLTISNLEQEDIATYFCQQGNTLPYTFGGGTKLEIKR | binds | binds
3 | antibody 3.7D6 (antibody, V domains shown, Mouse mAb, cloned as murine IgG2a LALAPG; those versions are not written separately; also called PFD antibody 3.7D6) VH: QIQLVQSGPDLKKPGETVKISCRTSGYAFTNYGVNWVKQAPGKGLKWMGWINTNTGQTTYAEEFRGRFAISLETSASTAFLTISNLKNEDSATYFCARLIYDGDYISSDFWGQGTTLTVSS VL: DIQMTQSPDSLSASVGETVTITCGASENIYGALNWYQRKQGKSPQLLIYGATNLADGMSSRFSGSRSGRQYSLKISSLHPDDVATYYCQNALSMPYTFGGGTKLEIKR | binds | –
4 | rabbit monoclonal antibody 5.17D12 (antibody, V domains shown, Rabbit mAb (Method #5), recombinant; also called rabmab 5.17D12) VH: QSLEESGGDLVKPGASLTLTCTASGFSFSSNYYMCWVRQAPGKGLEWIACVYVGSGGSTYYASWAKGRFTFSKTSSTTWTLQMTSLTAADTATYFCARDLSYAGDLWGPGTLVTVSS VL: DPVMTQTPASVSEPVGGTVTINCQASESISSYLAWYQQKPGQPPKLLIYGASNLASGVPSRFKGSGSGTEYTLTISDLECDDAATYYCQSAYYSNSGGHAFGGGTEVVVKG | binds | binds
5 | antibody 4.12E5 (antibody, V domains shown, Mouse mAb, cloned as murine IgG2a LALAPG) VH: EVQLQQSGPELVKTGASVKISCKASGYSFTGYFMHWVKQSHGKSLEWIGYISCYNGASVYNQRFKGKATFTIDTSSSTAYMQFNSLTSEDSAVYYCARDVLRYPRYAVDYWGQGTSVTVSS VL: not shown | binds | binds
6 | antibody 3.1C1 (antibody, V domains shown, Mouse mAb, cloned as murine IgG2a LALAPG; not written separately; also called SRA-ID mAb 3.1C1) VH: QVQLQQSGPELVKPGASVRISCKASGYTFTNYFIHWVKQRPGQGLEWIGWINPGNLNTKYTEEFKGKATLTADKSSSTAYIQLNSLTSEDSAVYFCVNGNPFVYWGQGTLVTVSA VL: DIVMTQSPSSLTVIAGEKVTLNCKSSQSLLNSGNQKKYLTWLQQKPGQPPKLLIYWTSTRDSGVPDRFTGSGSGTDFTLTISSVQAEDLAVYYCQNDYSYPLTFGAGTKLEIKR | binds | binds
7 | antibody 3.6E10 (antibody, V domains shown, Mouse mAb, cloned as murine IgG2a LALAPG) VH: QVQLQQSGAELAKPGASVKMSCKASGYIFTSYYLHWVKQRPGQGLEWIGYINPNTGYTEYTQNFKDRATLTADKSSSTAYMQLTSLTSEDSAVYFCVNGNPFVYWGQGTLVTVSA VL: DIVMTQSPSSLTVTTGEKVTMTCRSSQSLLNSGNQKNYLTWFQQKPGQPPKLLIYWTSTRYSGVPDRFTGSGSGTDFTLTISSVQAEDLAVYYCQNDYSYPLTFGAGTKLEIKR | binds | binds
